The record followed here is PMC6050537, “Inhibition of low-density lipoprotein receptor degradation with a cyclic peptide that disrupts the homodimerization of IDOL E3 ubiquitin ligase” (Chemical Science, 2018).

Non-standard residues stand in square brackets, D forms with d. Phe(4-NO2) = N[C@@H](Cc1ccc([N+](=O)[O-])cc1)C(=O)O; Phe(4-CN) = N#Cc1ccc(C[C@H](N)C(=O)O)cc1; Phe(4-Cl) = N[C@@H](Cc1ccc(Cl)cc1)C(=O)O; Phe(4-F) = N[C@@H](Cc1ccc(F)cc1)C(=O)O; Phe(4-Me) = Cc1ccc(C[C@H](N)C(=O)O)cc1; hPhe = N[C@@H](CCc1ccccc1)C(=O)O

For test [1], the target named is T1, Full length IDOL (1–445), Q8WY64.
T1 chain: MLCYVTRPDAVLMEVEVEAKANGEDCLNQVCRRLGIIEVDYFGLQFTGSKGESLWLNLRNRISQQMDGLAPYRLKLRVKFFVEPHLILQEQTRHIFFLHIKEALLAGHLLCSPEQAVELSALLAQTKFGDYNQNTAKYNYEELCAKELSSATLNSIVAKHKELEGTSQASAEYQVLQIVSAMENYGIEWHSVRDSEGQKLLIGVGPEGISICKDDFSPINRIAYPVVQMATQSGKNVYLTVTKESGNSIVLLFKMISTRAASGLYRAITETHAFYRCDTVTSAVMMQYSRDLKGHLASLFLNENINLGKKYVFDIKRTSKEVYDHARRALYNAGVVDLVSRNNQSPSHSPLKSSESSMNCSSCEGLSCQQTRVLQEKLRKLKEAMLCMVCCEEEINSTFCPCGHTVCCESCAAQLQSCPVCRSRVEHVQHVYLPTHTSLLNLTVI
The test is described as follows: MST. To be noted: modification not given; NT-647-NHS dye (only the labelled copy in the MST assays).

For test [2], the target named is Full length IDOL (1–445) (UniProt Q8WY64). The experiment in a line: SPR; Biacore S200; 6× His-tagged full-length IDOL immobilized on an NTA chip (~6000 RU), peptides as analytes; 10 mM HEPES, 300 mM NaCl, 1 mM TCEP, 0.05% Tween 20, 4% DMSO, pH 8.0; saturation at the highest concentrations not observed. Background: Surface plasmon resonance follows binding to a sensor surface in real time, without labels.

For test [3] the target is unchanged. The experiment in a line: MST; Monolith NT.115; 6× His IDOL labelled with NT-647-NHS dye at 50 nM, peptides titrated; 10 mM HEPES, 300 mM NaCl, 1 mM TCEP, 0.05% TWEEN-20, pH 8.0, 5% DMSO.

cyclo(CF[hPhe]LYT) (not fully specified) [RINGPep1 derivative with homo-phenylalanine at position 3] showed a Kd in test [1] of 23.6 µM.

On to cyclo(CF[Phe(4-Me)]LYT) (not fully specified) [RINGPep1 derivative with 4-methy-phenylalanine at position 3], for which the Kd in test [1] came out at 23.1 µM.

The molecule cyclo(CF[Phe(4-NO2)]LYT) (not fully specified) [RINGPep1 derivative with 4-nitro-phenylalanine at position 3] gave a dissociation constant Kd in test [1] of 35.7 µM.

In test [1], cyclo(CF[Phe(4-F)]LYT) (not fully specified) [RINGPep1 derivative with 4-fluoro-phenylalanine at position 3] showed an equilibrium dissociation constant (Kd) of 35.2 µM.

As for cyclo(CF[Phe(4-Cl)]LYT) (not fully specified) [RINGPep1 derivative with 4-chloro-phenylalanine at position 3], in test [1], the equilibrium dissociation constant (Kd) amounted to 12 µM.

CTIFLL (cyclic backbone (cyclo-)) [cyclo-CTIFLL]: the Kd in the test with Full length IDOL (1–445) [2] was 20.9 µM.

Consider CFFLYT (cyclic backbone (cyclo-)) [cyclo-CFFLYT], for which the Kd with Full length IDOL (1–445) [3] and in the test with Full length IDOL (1–445) [2] was 38.5 µM throughout.

The molecule cyclo(CF[Phe(4-CN)]LYT) (not fully specified) [RINGPep1 derivative with 4-cyano-phenylalanine at position 3] displayed a Kd in test [1] of 36.2 µM.

The term Kd denotes a measure of binding affinity in units of concentration.
